The supplement of paper PMC9112550, “Optimization of the antimicrobial peptide Bac7 by deep mutational scanning” (BMC Biology, 2022)

Tested on: Escherichia coli TOP10
Assay: shrunken log2 fold change of peptide-encoding DNA abundance (4.5 h post-induction vs induction); higher = less antimicrobial activity (less host growth inhibition)
Conditions: time post-induction: 4.5 h; library: site-saturation at positions 5, 18, 19, 20
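Also: peptides expressed intracellularly from a pBAD plasmid library in pooled LB shake-flask culture, induced with 0.3% L-arabinose, DNA abundance read by NGS, three biological replicates, DESeq2 with apeglm shrinkage.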

| Sequence | shrunken log2 fold change |
| --- | --- |
| RRIRMRPPRLPRPRPRPWPTPRP | 0.675 |
| RRIRMRPPRLPRPRPRPWQGPRP | 0.155 |
| RRIRMRPPRLPRPRPRPWSGPRP | -0.0411 |
| RRIRMRPPRLPRPRPRPWTDPRP | -0.035 |
| RRIRMRPPRLPRPRPRPWTMPRP | 0.0064 |
| RRIRMRPPRLPRPRPRPWVMPRP | -0.022 |
| RRIRMRPPRLPRPRPRPWWCPRP | 0.0647 |
| RRIRMRPPRLPRPRPRPWWVPRP | -0.129 |
| RRIRMRPPRLPRPRPRPWWYPRP | -1.27 |
| RRIRMRPPRLPRPRPRPWYFPRP | -0.282 |
| RRIRMRPPRLPRPRPRPYADPRP | 0.419 |
| RRIRMRPPRLPRPRPRPYFKPRP | -0.647 |
| RRIRMRPPRLPRPRPRPYFTPRP | -0.362 |
| RRIRMRPPRLPRPRPRPYFVPRP | 0.0021 |
| RRIRMRPPRLPRPRPRPYGKPRP | -0.0311 |
| RRIRMRPPRLPRPRPRPYHTPRP | -1.11 |
| RRIRMRPPRLPRPRPRPYHYPRP | -0.638 |
| RRIRMRPPRLPRPRPRPYIVPRP | -0.00174 |
| RRIRMRPPRLPRPRPRPYKNPRP | -0.259 |
| RRIRMRPPRLPRPRPRPYLDPRP | 0.107 |
| RRIRMRPPRLPRPRPRPYLMPRP | -0.357 |
| RRIRMRPPRLPRPRPRPYPAPRP | -0.246 |
| RRIRMRPPRLPRPRPRPYRFPRP | -0.118 |
| RRIRMRPPRLPRPRPRPYRGPRP | 0.148 |
| RRIRMRPPRLPRPRPRPYRTPRP | 0.0313 |

| Sequence | shrunken log2 fold change |
| --- | --- |
| RRIRMRPPRLPRPRPRPYSTPRP | -0.137 |
| RRIRMRPPRLPRPRPRPYTMPRP | -0.06 |
| RRIRMRPPRLPRPRPRPYWSPRP | -0.186 |
| RRIRMRPPRLPRPRPRPYYDPRP | 0.000459 |
| RRIRMRPPRLPRPRPRPYYFPRP | -0.537 |
| RRIRMRPPRLPRPRPRPYYYPRP | -0.304 |
| RRIRNRPPRLPRPRPRPACRPRP | 0.4 |
| RRIRNRPPRLPRPRPRPACTPRP | -0.0652 |
| RRIRNRPPRLPRPRPRPAEGPRP | 0.0922 |
| RRIRNRPPRLPRPRPRPAFKPRP | -0.0432 |
| RRIRNRPPRLPRPRPRPAIPPRP | -0.202 |
| RRIRNRPPRLPRPRPRPALIPRP | 0.0102 |
| RRIRNRPPRLPRPRPRPALMPRP | 0.15 |
| RRIRNRPPRLPRPRPRPALRPRP | 0.0951 |
| RRIRNRPPRLPRPRPRPAQGPRP | 0.279 |
| RRIRNRPPRLPRPRPRPAQKPRP | 0.918 |
| RRIRNRPPRLPRPRPRPASNPRP | -0.065 |
| RRIRNRPPRLPRPRPRPAVTPRP | 0.0989 |
| RRIRNRPPRLPRPRPRPAWLPRP | 0.276 |
| RRIRNRPPRLPRPRPRPCCDPRP | -0.0282 |
| RRIRNRPPRLPRPRPRPCCLPRP | -0.219 |
| RRIRNRPPRLPRPRPRPCEQPRP | -0.00776 |
| RRIRNRPPRLPRPRPRPCGIPRP | -0.138 |
| RRIRNRPPRLPRPRPRPCHSPRP | -0.539 |
| RRIRNRPPRLPRPRPRPCKIPRP | -0.00963 |

| Sequence | shrunken log2 fold change |
| --- | --- |
| RRIRNRPPRLPRPRPRPCKLPRP | -0.362 |
| RRIRNRPPRLPRPRPRPCKMPRP | -0.00674 |
| RRIRNRPPRLPRPRPRPCLNPRP | -0.0299 |
| RRIRNRPPRLPRPRPRPCMLPRP | -0.306 |
| RRIRNRPPRLPRPRPRPCMPPRP | -0.549 |
| RRIRNRPPRLPRPRPRPCMWPRP | -0.0288 |
| RRIRNRPPRLPRPRPRPCNYPRP | -0.164 |
| RRIRNRPPRLPRPRPRPCPCPRP | -0.0945 |
| RRIRNRPPRLPRPRPRPCQDPRP | -0.0893 |
| RRIRNRPPRLPRPRPRPCQHPRP | -0.0585 |
| RRIRNRPPRLPRPRPRPCSDPRP | 0.0121 |
| RRIRNRPPRLPRPRPRPCSIPRP | -0.000921 |
| RRIRNRPPRLPRPRPRPCSPPRP | -0.354 |
| RRIRNRPPRLPRPRPRPCSWPRP | -0.117 |
| RRIRNRPPRLPRPRPRPCTDPRP | 0.233 |
| RRIRNRPPRLPRPRPRPCTTPRP | -0.213 |
| RRIRNRPPRLPRPRPRPCWAPRP | -0.057 |
| RRIRNRPPRLPRPRPRPCWGPRP | -0.315 |
| RRIRNRPPRLPRPRPRPCYGPRP | -0.102 |
| RRIRNRPPRLPRPRPRPDAAPRP | 0.45 |
| RRIRNRPPRLPRPRPRPDAEPRP | 0.45 |
| RRIRNRPPRLPRPRPRPDAQPRP | -0.173 |
| RRIRNRPPRLPRPRPRPDCMPRP | 0.113 |
| RRIRNRPPRLPRPRPRPDCQPRP | 0.0461 |
| RRIRNRPPRLPRPRPRPDDAPRP | 0.147 |

| Sequence | shrunken log2 fold change |
| --- | --- |
| RRIRNRPPRLPRPRPRPDDKPRP | -0.0189 |
| RRIRNRPPRLPRPRPRPDEDPRP | 0.421 |
| RRIRNRPPRLPRPRPRPDENPRP | 0.00254 |
| RRIRNRPPRLPRPRPRPDFLPRP | -0.342 |
| RRIRNRPPRLPRPRPRPDHPPRP | -0.0362 |
| RRIRNRPPRLPRPRPRPDIWPRP | -0.394 |
| RRIRNRPPRLPRPRPRPDKWPRP | -0.258 |
| RRIRNRPPRLPRPRPRPDLMPRP | 3.21 |
| RRIRNRPPRLPRPRPRPDMPPRP | -0.244 |
| RRIRNRPPRLPRPRPRPDNTPRP | -0.297 |
| RRIRNRPPRLPRPRPRPDPVPRP | -0.137 |
| RRIRNRPPRLPRPRPRPDQTPRP | -0.0645 |
| RRIRNRPPRLPRPRPRPDREPRP | -0.149 |
| RRIRNRPPRLPRPRPRPDRWPRP | 0.00119 |
| RRIRNRPPRLPRPRPRPEAMPRP | 0.616 |
| RRIRNRPPRLPRPRPRPEAQPRP | -0.0169 |
| RRIRNRPPRLPRPRPRPEDAPRP | -0.00133 |
| RRIRNRPPRLPRPRPRPEDMPRP | -0.0541 |
| RRIRNRPPRLPRPRPRPEDVPRP | -0.0153 |
| RRIRNRPPRLPRPRPRPEEEPRP | -0.00134 |
| RRIRNRPPRLPRPRPRPEGNPRP | -0.0214 |
| RRIRNRPPRLPRPRPRPEHHPRP | -0.114 |
| RRIRNRPPRLPRPRPRPEHTPRP | -0.0129 |
| RRIRNRPPRLPRPRPRPEITPRP | -0.0284 |
| RRIRNRPPRLPRPRPRPEKDPRP | -0.0532 |

| Sequence | shrunken log2 fold change |
| --- | --- |
| RRIRNRPPRLPRPRPRPEKRPRP | -0.0252 |
| RRIRNRPPRLPRPRPRPELLPRP | 0.0274 |
| RRIRNRPPRLPRPRPRPELNPRP | -0.0809 |
| RRIRNRPPRLPRPRPRPEMEPRP | -0.0148 |
| RRIRNRPPRLPRPRPRPEMGPRP | -0.0261 |
| RRIRNRPPRLPRPRPRPEMHPRP | 0.191 |
| RRIRNRPPRLPRPRPRPENYPRP | -0.553 |
| RRIRNRPPRLPRPRPRPEQHPRP | 0.0592 |
| RRIRNRPPRLPRPRPRPEQTPRP | 0.235 |
| RRIRNRPPRLPRPRPRPERQPRP | 0.221 |
| RRIRNRPPRLPRPRPRPETHPRP | -0.0861 |
| RRIRNRPPRLPRPRPRPETMPRP | -0.0713 |
| RRIRNRPPRLPRPRPRPETWPRP | 0.0309 |
| RRIRNRPPRLPRPRPRPEVNPRP | -0.0723 |
| RRIRNRPPRLPRPRPRPEYEPRP | -0.156 |
| RRIRNRPPRLPRPRPRPEYNPRP | -0.678 |
| RRIRNRPPRLPRPRPRPFASPRP | -0.0512 |
| RRIRNRPPRLPRPRPRPFAYPRP | 0.0803 |
| RRIRNRPPRLPRPRPRPFDDPRP | -0.00192 |
| RRIRNRPPRLPRPRPRPFDYPRP | -0.262 |
| RRIRNRPPRLPRPRPRPFEFPRP | -0.0681 |
| RRIRNRPPRLPRPRPRPFEIPRP | -0.0195 |
| RRIRNRPPRLPRPRPRPFELPRP | 0.00621 |
| RRIRNRPPRLPRPRPRPFETPRP | 0.0215 |
| RRIRNRPPRLPRPRPRPFFHPRP | -0.446 |

| Sequence | shrunken log2 fold change |
| --- | --- |
| RRIRNRPPRLPRPRPRPFFPPRP | -0.122 |
| RRIRNRPPRLPRPRPRPFFVPRP | 0.126 |
| RRIRNRPPRLPRPRPRPFHPPRP | 0.0752 |
| RRIRNRPPRLPRPRPRPFIHPRP | -0.116 |
| RRIRNRPPRLPRPRPRPFIPPRP | -0.0923 |
| RRIRNRPPRLPRPRPRPFLDPRP | -0.358 |
| RRIRNRPPRLPRPRPRPFMRPRP | 0.269 |
| RRIRNRPPRLPRPRPRPFPAPRP | -0.0844 |
| RRIRNRPPRLPRPRPRPFPLPRP | -0.0286 |
| RRIRNRPPRLPRPRPRPFQDPRP | -0.00135 |
| RRIRNRPPRLPRPRPRPFRFPRP | -0.199 |
| RRIRNRPPRLPRPRPRPFRNPRP | -0.515 |
| RRIRNRPPRLPRPRPRPFVAPRP | -0.41 |
| RRIRNRPPRLPRPRPRPFVQPRP | -0.225 |
| RRIRNRPPRLPRPRPRPFVSPRP | -0.394 |
| RRIRNRPPRLPRPRPRPFVWPRP | -0.0187 |
| RRIRNRPPRLPRPRPRPFWYPRP | 0.0148 |
| RRIRNRPPRLPRPRPRPFYTPRP | -1.29 |
| RRIRNRPPRLPRPRPRPGAPPRP | 0.492 |
| RRIRNRPPRLPRPRPRPGCDPRP | -0.0442 |
| RRIRNRPPRLPRPRPRPGDPPRP | 0.306 |
| RRIRNRPPRLPRPRPRPGDQPRP | 0.0802 |
| RRIRNRPPRLPRPRPRPGDWPRP | 2.87 |
| RRIRNRPPRLPRPRPRPGFHPRP | -0.0379 |
| RRIRNRPPRLPRPRPRPGGDPRP | 0.00185 |
